Test results reported in paper PMC4262935.
Where two headings read alike, the source gives them in different places.

What was measured:
[1] = molecular target: actin in thin filaments (mouse (endogenous in C57BL/6 ventricular myofibrils)) (UniProt P68033)
[2] = molecular target: actin in thin filaments (mouse (endogenous in C57BL/6 ventricular myofibrils)) (UniProt P68033); remark: listed apart in the source

k3 (rate of dissociation of XBs from thin filaments, with ATP) [1]: 0.061 s⁻¹
k3 (rate of dissociation of XBs from thin filaments, with ATP) [2]: 0.0492 s⁻¹
Substance: myosin cross-bridge (from UniProt Q02566 1-1938; P09542 1-204; P51667 1-166) (complex)
